Data on one molecule can be found in publication PMC4533773 (International Journal of Molecular Medicine, 2015).

This experiment concerns the target T1, AIM (analyte of the BLI experiment) (UniProt Q9QWK4 22-352).
T1 sequence (looked up): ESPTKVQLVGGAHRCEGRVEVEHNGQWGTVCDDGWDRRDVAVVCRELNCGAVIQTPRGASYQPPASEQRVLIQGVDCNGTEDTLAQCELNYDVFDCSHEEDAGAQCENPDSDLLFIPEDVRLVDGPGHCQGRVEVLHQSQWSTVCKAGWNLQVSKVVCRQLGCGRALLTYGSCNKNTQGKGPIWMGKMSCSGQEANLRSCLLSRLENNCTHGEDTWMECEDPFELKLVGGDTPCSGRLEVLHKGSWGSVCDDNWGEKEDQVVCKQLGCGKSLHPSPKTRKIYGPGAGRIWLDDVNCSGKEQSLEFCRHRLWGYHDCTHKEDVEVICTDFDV
Briefly: BLI.

By Kd is commonly meant the free concentration of one partner at which half of the binding sites on the other are occupied at equilibrium, for simple one-to-one binding. Higher therefore signals weaker binding. Usually koff stands for the first-order rate constant of dissociation. As a reminder, the kon is a measure of how fast the partners come together. Low values mean slow association, high ones fast association.

B1: Biotinylated IGFBP-4 (natural protein, UniProt P47879 22-254, looked up)
chain: DEAIHCPPCSEEKLARCRPPVGCEELVREPGCGCCATCALGLGMPCGVYTPRCGSGMRCYPPRGVEKPLRTLMHGQGVCTELSEIEAIQESLQTSDKDESEHPNNSFNPCSAHDHRCLQKHMAKIRDRSKMKIVGTPREEPRPVPQGSCQSELHRALERLAASQSRTHEDLFIIPIPNCDRNGNFHPKQCHPALDGQRGKCWCVDRKTGVKLPGGLEPKGELDCHQLADSFQE
modifications: biotin (labelled after purification; sites not stated)
Take B1: the affinity, expressed as Kd, was 25.3 nM; the koff is 0.000999 s⁻¹; the kon stood at 39600 M⁻¹ s⁻¹.
